For 9 substances, Km and kcat results are on record in US20260308536A1, “NOVEL URICASE VARIANTS AND METHODS OF USE THEREOF” (priority 2023, published 2026).

Type in all cases: biochemical, Aspergillus flavus
Data set [1] relates to O=c1[nH]c(=O)c2[nH]c(=O)[nH]c2[nH]1. Kind of data set: Michaelis-Menten kinetics, RasU_D8. As to conditions: other: role: substrate; RasU_D8 (SEQ ID NO: 236); pH 10.5; 25.0 °C. The text has this:
(§1) Select Aspergillus flavus uricase variants RasU_D12, as well as its subvariants RasU_D12-A56T, and RasU_D12-W160E; and RasU_D8, as well as its subvariants RasU_D8-T33V, RasU_D8-Y65H, RasU_D8-W160E, RasU_D8-A209N, and RasU_D8-T210K were subject to further characterization by comparing their expression yields, Michaelis-Menten kinetics parameters, and thermostability measured by temperatures at which 50% of normal activity was lost determined by heat stress activity assay, with those of the wild type Aspergillus flavus uricase. As the names of the subvariants indicated, the subvariants of RasU_D12 were constructed by introducing an additional amino acid substitution A56T or W160E into the RasU_D12 variant, while the subvariants of RasU_D8 were constructed by introducing an additional amino acid substitution T33V, Y65H, W160E, A209N, or T210K into the RasU_D8 variant. Each of the additional amino acid substitutions was to address residual T cell epitopes in the RasU_D8 or RasU_D12 variant. The expression yields were determined as described above in the “Methods” section. The determination of the Michaelis-Menten kinetics parameters kcat and KM, and the heat stress activity assay were likewise performed using the methods described in Example 1. […]

Data set [2] shares this test system. Description: Michaelis-Menten kinetics, RasU_D8-A209N. The following applies: other: role: substrate; RasU_D8-A209N (SEQ ID NO: 272); pH 10.5; 25.0 °C.
From the text: as §1

For data set [3] the test system is unchanged. Description: Michaelis-Menten kinetics, RasU_D8-T33V. The following applies: other: role: substrate; RasU_D8-T33V (SEQ ID NO: 269); pH 10.5; 25.0 °C.
From the text: as §1

For data set [4] the test system is unchanged. Kind of data set: Michaelis-Menten kinetics, RasU_D8-T210K. As to conditions: other: role: substrate; RasU_D8-T210K (SEQ ID NO: 273); pH 10.5; 25.0 °C.
From the text: as §1

For data set [5] the test system is unchanged. Kind of data set: Michaelis-Menten kinetics, RasU_D8-W160E. The following applies: other: role: substrate; RasU_D8-W160E (SEQ ID NO: 271); pH 10.5; 25.0 °C.
From the text: as §1

For data set [6] the test system is unchanged. Description: Michaelis-Menten kinetics, RasU_D8-Y65H. The following applies: other: role: substrate; RasU_D8-Y65H (SEQ ID NO: 270); pH 10.5; 25.0 °C.
From the text: as §1

The test system is the same in data set [7]. Kind of data set: Michaelis-Menten kinetics, RasU_D12. As to conditions: other: role: substrate; RasU_D12 (SEQ ID NO: 229); pH 10.5; 25.0 °C.
From the text: as §1

Data set [8] shares this test system. Kind of data set: Michaelis-Menten kinetics, RasU_D12-A56T. As to conditions: other: role: substrate; RasU_D12-A56T (SEQ ID NO: 267); pH 10.5; 25.0 °C.
From the text: as §1

The test system is the same in data set [9]. Description: Michaelis-Menten kinetics, RasU_D12-W160E. As to conditions: other: role: substrate; RasU_D12-W160E (SEQ ID NO: 268); pH 10.5; 25.0 °C.
From the text: as §1

Usually Km stands for the substrate concentration at which the rate is half of its maximum. One may read the kcat as the maximal rate divided by the concentration of active sites. On to “Aspergillus flavus uricase variant RasU_D8 (Aspergillus flavus; A230N/A241D/A97K/E42N/I83E/N101D/S148D/V54N)”, for which, in data set [1], the Km worked out at 900 ± 200 µM and the kcat came out at 0.8 ± 0.1 s⁻¹.

For “Aspergillus flavus uricase variant RasU_D8-A209N (Aspergillus flavus; A210N/A230N/A241D/A97K/E42N/I83E/N101D/S148D/V54N)”, in data set [2], the Km was 1100 ± 300 µM and the kcat was 1.1 ± 0.1 s⁻¹.

As for “Aspergillus flavus uricase variant RasU_D8-T33V (Aspergillus flavus; A230N/A241D/A97K/E42N/I83E/N101D/S148D/T34V/V54N)”, in data set [3], the Km was 3000 ± 1000 µM and the kcat turned out to be 1.6 ± 0.5 s⁻¹.

With “Aspergillus flavus uricase variant RasU_D8-T210K (Aspergillus flavus; A230N/A241D/A97K/E42N/I83E/N101D/S148D/T211K/V54N)”, in data set [4], the Km came out at 3000 ± 2000 µM and the catalytic constant (kcat) came to 2.0 ± 0.7 s⁻¹.

Turning to “Aspergillus flavus uricase variant RasU_D8-W160E (Aspergillus flavus; A230N/A241D/A97K/E42N/I83E/N101D/S148D/V54N/W161E)”, in [5], the Km turned out to be 600 ± 200 µM and the kcat turned out to be 1.2 ± 0.2 s⁻¹.

With “Aspergillus flavus uricase variant RasU_D8-Y65H (Aspergillus flavus; A230N/A241D/A97K/E42N/I83E/N101D/S148D/V54N/Y66H)”, in [6], the Km was determined as 3000 ± 1000 µM and the kcat came to 1.7 ± 0.5 s⁻¹.

“Aspergillus flavus uricase variant RasU_D12 (Aspergillus flavus; A230N/A241D/A97K/E42N/I83E/N101D/S148D/T211K)”: in [7], the Km was determined as 400 ± 100 µM and the kcat stood at 1.3 ± 0.1 s⁻¹.

Consider “Aspergillus flavus uricase variant RasU_D12-A56T (Aspergillus flavus; A230N/A241D/A57T/A97K/E42N/I83E/N101D/S148D/T211K)”, for which, in data set [8], the Km came out at 1500 ± 600 µM and the kcat is 1.4 ± 0.3 s⁻¹.

As for “Aspergillus flavus uricase variant RasU_D12-W160E (Aspergillus flavus; A230N/A241D/A97K/E42N/I83E/N101D/S148D/T211K/W161E)”, in data set [9], the Km is 1700 ± 1000 µM and the kcat was determined as 1.7 ± 0.5 s⁻¹.
